Experimental data reported in publication PMC4577212, “X-Ray Structure and Mutagenesis Studies of the N-Isopropylammelide Isopropylaminohydrolase, AtzC” (PLoS ONE, 2015).

Substrate: Nc1nc(O)nc(O)n1
Test: purified protein
Settings: 200 mM sodium phosphate pH 7.5, glycerol, 301 K, 28.0 °C

B1: AtzC (N-isopropylammelide isopropylaminohydrolase) (Pseudomonas sp. ADP) (protein)
chain: MSKDFDLIIRNAYLSEKDSVYDIGIVGDRIIKIEAKIEGTVKDEIDAKGNLVSPGFVDAHTHMDKSFTSTGERLPKFWSRPYTRDAAIEDGLKYYKNATHEEIKRHVIEHAHMQVLHGTLYTRTHVDVDSVAKTKAVEAVLEAKEELKDLIDIQVVAFAQSGFFVDLESESLIRKSLDMGCDLVGGVDPATRENNVEGSLDLCFKLAKEYDVDIDYHIHDIGTVGVYSINRLAQKTIENGYKGRVTTSHAWCFADAPSEWLDEAIPLYKDSGMKFVTCFSSTPPTMPVIKLLEAGINLGCASDNIRDFWVPFGNGDMVQGALIETQRLELKTNRDLGLIWKMITSEGARVLGIEKNYGIEVGKKADLVVLNSLSPQWAIIDQAKRLCVIKNGRIIVKDEVIVA
Q: Which Km does the source give for B1 here?
A: 3.1 ± 0.2 mM

Q: What about the kcat of the same protein?
A: 26.2 ± 1.8 s⁻¹

Q: And the kcat/Km?
A: 8500 M⁻¹ s⁻¹
